Measurements taken from patent US20180037657A1 (AGENSYS, published 2018).
Each block holds one molecule with its values, some of them ahead of it.

Experiments:
[1] = target: FLT3 on the cell surface (human leukemia cell lines and patient cells) (human) (UniProt P36888); assay: flow cytometry, biotinylated antibody 10 ug/ml + Streptavidin-PE, MOLM-13 cells (AML)
[2] = target: FLT3 on the cell surface (human leukemia cell lines and patient cells) (human) (UniProt P36888); assay: flow cytometry, biotinylated antibody 10 ug/ml + Streptavidin-PE, SEM cells (B-ALL)
[3] = target: FLT3 on the cell surface (human leukemia cell lines and patient cells) (human) (UniProt P36888); assay: flow cytometry, biotinylated antibody 10 ug/ml + Streptavidin-PE, RS4;11 cells (B-ALL)
[4] = target: FLT3 on the cell surface (human leukemia cell lines and patient cells) (human) (UniProt P36888); assay: flow cytometry, biotinylated antibody 10 ug/ml + Streptavidin-PE, SKM-1 cells (AML)
[5] = target: FLT3 on the cell surface (human leukemia cell lines and patient cells) (human) (UniProt P36888); assay: flow cytometry, biotinylated antibody 10 ug/ml + Streptavidin-PE, NALM-1 cells (CML)
[6] = target: FLT3 on the cell surface (human leukemia cell lines and patient cells) (human) (UniProt P36888); assay: flow cytometry, biotinylated antibody 10 ug/ml + Streptavidin-PE, THP-1 cells (AML)
[7] = target: FLT3 on the cell surface (human leukemia cell lines and patient cells) (human) (UniProt P36888); assay: flow cytometry, biotinylated antibody 10 ug/ml + Streptavidin-PE, EOL-1 cells (AML)
[8] = target: FLT3 on the cell surface (human leukemia cell lines and patient cells) (human) (UniProt P36888); assay: flow cytometry, biotinylated antibody 10 ug/ml + Streptavidin-PE, PL-21 cells (AML)
[9] = target: FLT3 on the cell surface (human leukemia cell lines and patient cells) (human) (UniProt P36888); assay: flow cytometry, biotinylated antibody 10 ug/ml + Streptavidin-PE, MV-4-11 cells (AML)
[10] = target: FLT3 on the cell surface (human leukemia cell lines and patient cells) (human) (UniProt P36888); assay: flow cytometry, biotinylated antibody 10 ug/ml + Streptavidin-PE, MONOMAC-1 cells (AML)
[11] = target: FLT3 on the cell surface (human leukemia cell lines and patient cells) (human) (UniProt P36888); assay: flow cytometry, biotinylated antibody 10 ug/ml + Streptavidin-PE, REH cells (ALL)
[12] = target: FLT3 on the cell surface (human leukemia cell lines and patient cells) (human) (UniProt P36888); assay: flow cytometry, biotinylated antibody 10 ug/ml + Streptavidin-PE, OCI-AML2 cells (AML)
[13] = target: T1, FLT3 on the cell surface (human leukemia cell lines and patient cells) (human, UniProt P36888 27-993); assay: flow cytometry, biotinylated antibody 10 ug/ml + Streptavidin-PE, SEM cells (B-ALL)
T1 construct: Endogenous or recombinant FLT3 on cells; also called Fms like tyrosine kinase 3 receptor; Flk2
T1 sequence (P36888 27-993 T227M limits assumed): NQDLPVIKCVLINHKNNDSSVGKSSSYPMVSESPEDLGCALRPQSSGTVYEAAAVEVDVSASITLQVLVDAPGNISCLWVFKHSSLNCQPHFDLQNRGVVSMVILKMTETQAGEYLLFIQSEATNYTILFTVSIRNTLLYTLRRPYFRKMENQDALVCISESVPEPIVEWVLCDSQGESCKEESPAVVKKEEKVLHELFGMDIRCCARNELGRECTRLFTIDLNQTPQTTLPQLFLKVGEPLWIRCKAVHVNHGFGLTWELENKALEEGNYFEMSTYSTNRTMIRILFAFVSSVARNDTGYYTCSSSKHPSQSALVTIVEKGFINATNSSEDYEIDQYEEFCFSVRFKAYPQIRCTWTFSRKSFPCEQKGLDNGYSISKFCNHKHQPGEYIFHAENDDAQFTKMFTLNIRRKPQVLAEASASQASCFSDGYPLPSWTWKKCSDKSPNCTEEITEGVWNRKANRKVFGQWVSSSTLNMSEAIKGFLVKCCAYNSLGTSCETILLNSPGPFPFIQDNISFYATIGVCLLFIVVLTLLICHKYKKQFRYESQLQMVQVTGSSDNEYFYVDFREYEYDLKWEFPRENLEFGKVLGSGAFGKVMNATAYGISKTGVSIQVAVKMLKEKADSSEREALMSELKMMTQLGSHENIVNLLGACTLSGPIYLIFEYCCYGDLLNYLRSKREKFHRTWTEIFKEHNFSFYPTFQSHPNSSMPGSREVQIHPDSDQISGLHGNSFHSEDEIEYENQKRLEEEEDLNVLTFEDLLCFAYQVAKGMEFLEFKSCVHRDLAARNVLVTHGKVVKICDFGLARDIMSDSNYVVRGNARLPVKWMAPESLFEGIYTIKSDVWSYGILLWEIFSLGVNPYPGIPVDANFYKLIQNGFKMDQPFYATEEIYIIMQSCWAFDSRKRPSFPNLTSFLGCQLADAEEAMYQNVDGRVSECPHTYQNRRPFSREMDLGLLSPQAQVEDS
Method: (§1) CHv62.21 was tested for binding to AML and B-ALL cell lines grown in vitro. (See, Table VII). Briefly, CHv62.21 and an isotype matched control antibody were biotinylated using NHS LC biotin. In vitro, exponentially grown cancer cell lines were used for all experiments. Cells were harvested by and washed by centrifugation. Cells were Fc blocked to reduce non-specific binding. Antibodies were diluted to 10 ug/ml final concentration and co-incubated with cells at 4° C. for 1 hour. At the end of the incubation, cells were washed and incubated with secondary detection Streptavidin-PE antibody at a final 1:200 (2.5 ug/ml) dilution for 1 hour at 4° C. After washing un-bound secondary antibody, cells were analyzed by FACS and geometric mean fluorescence was determined and reported. Fluorescence ratio was calculated as follows: Geo mean cHv62.21/Geo mean isotype control=MFR, a measure of fold expression above isotype control.

[14] = target: T1, FLT3 on the cell surface (human …); assay: flow cytometry, biotinylated antibody 10 ug/ml + Streptavidin-PE, REH cells (ALL)
Method: as §1

[15] = target: T1, FLT3 on the cell surface (human …); assay: flow cytometry, biotinylated antibody 10 ug/ml + Streptavidin-PE, MOLM-13 cells (AML)
Method: as §1

[16] = target: T1, FLT3 on the cell surface (human …); assay: flow cytometry, biotinylated antibody 10 ug/ml + Streptavidin-PE, PL-21 cells (AML)
Method: as §1

[17] = target: T1, FLT3 on the cell surface (human …); assay: flow cytometry, biotinylated antibody 10 ug/ml + Streptavidin-PE, OCI-AML2 cells (AML)
Method: as §1

[18] = target: T1, FLT3 on the cell surface (human …); assay: flow cytometry, biotinylated antibody 10 ug/ml + Streptavidin-PE, SKM-1 cells (AML)
Method: as §1

[19] = target: T1, FLT3 on the cell surface (human …); assay: flow cytometry, biotinylated antibody 10 ug/ml + Streptavidin-PE, NALM-1 cells (CML)
Method: as §1

[20] = target: T1, FLT3 on the cell surface (human …); assay: flow cytometry, biotinylated antibody 10 ug/ml + Streptavidin-PE, RS4;11 cells (B-ALL)
Method: as §1

[21] = target: T1, FLT3 on the cell surface (human …); assay: flow cytometry, biotinylated antibody 10 ug/ml + Streptavidin-PE, EOL-1 cells (AML)
Method: as §1

[22] = target: T1, FLT3 on the cell surface (human …); assay: flow cytometry, biotinylated antibody 10 ug/ml + Streptavidin-PE, MV-4-11 cells (AML)
Method: as §1

[23] = target: T1, FLT3 on the cell surface (human …); assay: flow cytometry, biotinylated antibody 10 ug/ml + Streptavidin-PE, MONOMAC-1 cells (AML)
Method: as §1

[24] = target: T1, FLT3 on the cell surface (human …); assay: flow cytometry, biotinylated antibody 10 ug/ml + Streptavidin-PE, THP-1 cells (AML)
Method: as §1

FLT3 on the cell surface (human leukemia cell lines and patient cells) (human), sequence (P36888 27-993 T227M limits assumed): as above

Geometric Mean fluorescence [1]: 320 | Geometric Mean fluorescence [2]: 212 | Geometric Mean fluorescence [3]: 213 | Geometric Mean fluorescence [4]: 445 | Geometric Mean fluorescence [5]: 262 | Geometric Mean fluorescence [6]: 474 | Geometric Mean fluorescence [7]: 281 | Geometric Mean fluorescence [8]: 570 | Geometric Mean fluorescence [9]: 366 | Geometric Mean fluorescence [10]: 338 | Geometric Mean fluorescence [11]: 235 | Geometric Mean fluorescence [12]: 329
Molecule: isotype matched control antibody (Table VI)

MFR (Geo mean cHv62.21/Geo mean isotype control) [13]: 623 fold | MFR (Geo mean cHv62.21/Geo mean isotype control) [14]: 69 fold | MFR (Geo mean cHv62.21/Geo mean isotype control) [15]: 44 fold | MFR (Geo mean cHv62.21/Geo mean isotype control) [16]: 7 fold | MFR (Geo mean cHv62.21/Geo mean isotype control) [17]: 17 fold | MFR (Geo mean cHv62.21/Geo mean isotype control) [18]: 7 fold | MFR (Geo mean cHv62.21/Geo mean isotype control) [19]: 49 fold | MFR (Geo mean cHv62.21/Geo mean isotype control) [20]: 86 fold | MFR (Geo mean cHv62.21/Geo mean isotype control) [21]: 50 fold | MFR (Geo mean cHv62.21/Geo mean isotype control) [22]: 8 fold | MFR (Geo mean cHv62.21/Geo mean isotype control) [23]: 34 fold | MFR (Geo mean cHv62.21/Geo mean isotype control) [24]: 42 fold
B1: CHv62.21 MAb (antibody, human IgG1, kappa, V domains shown)
VH: EVQLVESGGGLVRPGGSLRLSCAASGFTFSGYSINWVRQAPGKGLEWVSSISSSSNYIYYADSVKGRFTISRDNAKNSLYLQMNSLRAEDTAVYYCAREGFIAGTTFDAFDIWGQGTMVTVSS
VL: DIQMTQSPSSLSASVGDRVTITCRASQGIRNDLGWYQQKPGKAPKRLIYAASSLQSGVPSRFSGSGSGTEFTLTISSLQPEDFATYYCLQHNGFPYTFGQGTKLEIKR
notes: also called cHv62-1b21.1
